{"source": "patent US20200299400A1", "about": "(published 2020)", "binders": {"B1": {"name": "anti-GITR-IgG2 (antibody)", "heavy": "QVQLVESGGGVVQPGRSLRLSCAASGFTFSSYGMHWVRQAPGKGLEWVAVIWYEGSNKYYADSVKGRFTISRDNSKNTLYLQMNSLRAEDTAVYYCARGGSMVRGDYYYGMDVWGQGTTVTVSSASTKGPSVFPLAPCSRSTSESTAALGCLVKDYFPEPVTVSWNSGALTSGVHTFPAVLQSSGLYSLSSVVTVPSSNFGTQTYTCNVDHKPSNTKVDKTVERKCCVECPPCPAPPVAGPSVFLFPPKPKDTLMISRTPEVTCVVVDVSHEDPEVQFNWYVDGVEVHNAKTKPREEQFNSTFRVVSVLTVVHQDWLNGKEYKCKVSNKGLPAPIEKTISKTKGQPREPQVYTLPPSREEMTKNQVSLTCLVKGFYPSDIAVEWESNGQPENNYKTTPPMLDSDGSFFLYSKLTVDKSRWQQGNVFSCSVMHEALHNHYTQKSLSLSPGK", "light": "not shown"}, "B2": {"name": "anti-GITR-IgG2-IgG1.1 (antibody)", "heavy": "QVQLVESGGGVVQPGRSLRLSCAASGFTFSSYGMHWVRQAPGKGLEWVAVIWYEGSNKYYADSVKGRFTISRDNSKNTLYLQMNSLRAEDTAVYYCARGGSMVRGDYYYGMDVWGQGTTVTVSSASTKGPSVFPLAPCSRSTSESTAALGCLVKDYFPEPVTVSWNSGALTSGVHTFPAVLQSSGLYSLSSVVTVPSSNFGTQTYTCNVDHKPSNTKVDKTVERKCCVECPPCPAPPVAGPSVFLFPPKPKDTLMISRTPEVTCVVVDVSHEDPEVKFNWYVDGVEVHNAKTKPREEQYNSTYRVVSVLTVLHQDWLNGKEYKCKVSNKALPSSIEKTISKAKGQPREPQVYTLPPSREEMTKNQVSLTCLVKGFYPSDIAVEWESNGQPENNYKTTPPVLDSDGSFFLYSKLTVDKSRWQQGNVFSCSVMHEALHNHYTQKSLSLSPG", "light": "not shown"}}, "target": "T1, human GITR on cells (human, UniProt Q9Y5U5 26-241)", "T1 chain": "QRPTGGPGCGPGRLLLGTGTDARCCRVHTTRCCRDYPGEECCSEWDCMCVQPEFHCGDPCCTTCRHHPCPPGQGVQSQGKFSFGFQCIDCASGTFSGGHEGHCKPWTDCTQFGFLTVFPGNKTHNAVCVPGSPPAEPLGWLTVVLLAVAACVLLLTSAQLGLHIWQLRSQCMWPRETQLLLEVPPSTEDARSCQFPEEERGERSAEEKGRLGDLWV", "test": "FACS binding to activated human CD4 T cells", "data": [{"binder": "B1", "values": [{"measurement": "EC50", "result": 0.277, "unit": "nM"}]}, {"binder": "B2", "values": [{"measurement": "EC50", "result": 0.163, "unit": "nM"}]}]}
